This test concerns the target Human parvovirus B19 major capsid protein VP2 (human parvovirus B19).

The source of these data is paper PMC9695803.

As for “Human parvovirus B19 minor capsid protein VP1 (from UniProt Q9PZT0 1-781) (natural protein)”, the proportion of VP1 in the VP1/VP2 VLP worked out at 5.11% and the proportion of VP1 in the VP1h/VP2 VLP came to 25.4%.
